# Data taken from patent US20220281973A1 (TRUEBINDING, published 2022).
# T1: human LRIG1 extracellular domain fused to a linker-spaced 6-histidine tag, LRIG1-ECD-His (R&D systems, … (human, UniProt Q96JA1 35-794))
# T1 construct: Bought protein; also called human LRIG1-His; hLRIG1-His; not shown: linker-spaced 6-histidine tag
# T1 sequence: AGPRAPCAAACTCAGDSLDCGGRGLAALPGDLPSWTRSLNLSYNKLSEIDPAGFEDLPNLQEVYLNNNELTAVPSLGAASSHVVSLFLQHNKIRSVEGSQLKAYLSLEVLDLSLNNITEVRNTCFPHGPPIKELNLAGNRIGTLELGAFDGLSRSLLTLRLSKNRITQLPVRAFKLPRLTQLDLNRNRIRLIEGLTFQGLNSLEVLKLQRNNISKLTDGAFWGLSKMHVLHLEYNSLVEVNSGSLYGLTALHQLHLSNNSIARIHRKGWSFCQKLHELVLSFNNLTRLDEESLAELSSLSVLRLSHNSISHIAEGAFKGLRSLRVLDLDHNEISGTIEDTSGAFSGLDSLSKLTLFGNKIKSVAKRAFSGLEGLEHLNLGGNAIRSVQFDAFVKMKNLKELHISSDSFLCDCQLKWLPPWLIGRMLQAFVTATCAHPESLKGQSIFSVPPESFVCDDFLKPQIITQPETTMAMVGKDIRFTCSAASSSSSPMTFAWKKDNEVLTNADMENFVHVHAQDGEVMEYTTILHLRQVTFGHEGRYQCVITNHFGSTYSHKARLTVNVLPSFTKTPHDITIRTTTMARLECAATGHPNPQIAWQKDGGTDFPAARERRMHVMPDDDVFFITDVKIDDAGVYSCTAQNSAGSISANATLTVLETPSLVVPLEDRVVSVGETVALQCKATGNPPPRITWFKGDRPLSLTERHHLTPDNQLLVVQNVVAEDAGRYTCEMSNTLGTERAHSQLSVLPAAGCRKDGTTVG
# T2: hLRIG1 Peptide 69 (human)
# T2 construct: 20 amino acid peptide of the LRIG1 peptide library
# T2 peptide: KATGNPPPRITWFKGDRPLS
# T3: hLRIG1 Peptide 71 (human)
# T3 construct: 20 amino acid peptide of the LRIG1 peptide library
# T3 peptide: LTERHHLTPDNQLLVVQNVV
# T4: hLRIG1 Peptide 70 (human)
# T4 construct: 20 amino acid peptide of the LRIG1 peptide library
# T4 peptide: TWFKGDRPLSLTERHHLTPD
# Tests used:
# [1] = biological target: T1, human LRIG1 extracellular domain fused …; assay: LRIG1 ECD ELISA-positive hybridoma antibodies tested in blocking ELISA on plate-bound LRIG1-ECD-His
# Experimental: Positively scoring wells were evaluated for the ability to block association of LRIG1 and VISTA. To identify LRIG1-targeted antibodies with the ability to block the interaction of LRIG1 and VISTA, purified LRIG1 and VISTA proteins were incubated in the presence of LRIG1-immunization hybridoma supernatants described above, or without antibody, and protein interaction was evaluated by ELISA. Purified human LRIG1 extracellular domain fused to a HIS tag (R&D Systems) was diluted in phosphate buffered saline (PBS) (Corning) to a concentration of 3 μg/ml and 100 μl was added to each well of a 96-well ELISA plate (Thermo Fisher, 44-2404-21). After incubating the plate at 4° C. overnight, the plate was washed three times with 300 μl of PBS with 0.05% TWEEN (VWR) (PBST) per well. The plate was then blocked for an hour with 200 μl of 2% bovine serum albumin (BSA) (Sigma) in PBST per well at room temperature with gentle rocking. Thereafter, the 2% BSA in PBST was removed and 50 μl of hybridoma supernatant diluted to 3.3 ug/mL was added to the wells. The plate was incubated for 10 minutes at room temperature with gentle rocking. Afterwards, 100 ul of 50 nM oligomerized VISTA in 100 ul PBS buffer was added per well. VISTA oligomerization was performed by Klickmer formation. Briefly, 5 nM Klickmer (Immudex) was incubated with 200 nM hVISTA-Fc-Avi-Biotin in PBS and incubated for one hour. The plate was incubated for an hour at room temperature with gentle rocking. Thereafter, the plate was washed three times with 300 μl of PBST per well, and 100 μl of avidin-HRP (1:1000) (Jackson ImmunoResearch) was then added to each well and the plate was incubated at room temperature for 30 minutes with gentle rocking. Thereafter, the plate was washed three times with 300 μl of PBST per well. 100 μl of TMB substrate (Fisher Scientific, 34029) was then added to each well. The reaction was stopped with 50 μl of 1 M HCl (VWR) per well. The plate was read using a spectrophotometer (Molecular Devices) at absorbance of 450 nm. Percent blockade of LRIG1-VISTA interaction was calculated as the fraction of signal obtained in each experimental samples of the no antibody sample less background signal.
# hLRIG1 Peptide 69 = biological target: T2, hLRIG1 Peptide 69; assay: peptide ELISA of Example 2, as told in Example 3
# Experimental: (§1) To identify the epitopes to which LRIG1 antibodies with and without VISTA-LRIG1 blocking activity bound, a library of 20 amino acid peptides representing portions of LRIG1 was produced, and the ability to bind LRIG1 antibodies was evaluated by ELISA. At least 2 ug/ml of hLRIG1 peptide in 50 μl of PBS or 0.1 ug/ml of full-length human LRIG1 protein (R&D Systems) in 100 μl of PBS was added to the wells of a 96-well ELISA plate (Thermo Fisher, 44-2404-21). After incubating the plate at 4° C. overnight, the plate was washed three times with 300 μl of PBST per well. The plate was then blocked for an hour with 200 μl of 2% BSA in PBST per well at room temperature with gentle rocking. Thereafter, the 2% BSA in PBST was removed and 100 μl of 0.1 ug/ml of antibody in 2% BSA in PBST was added to the wells. The plate was incubated for an hour at room temperature with gentle rocking and then washed three times with 300 μl of PBST per well. Afterwards, 100 μl of anti-mouse IgG-HRP (1:4000) (Jackson ImmunoResearch) or anti-rat IgG HRP (1:4000) (Jackson ImmunoResearch) was added to the wells. The plate was incubated for 30 minutes at room temperature with gentle rocking and then washed three times with 300 μl of PBST per well. 100 μl of TMB substrate (Fisher Scientific, 34029) was then added to each well. The reaction was stopped with 50 μl of 1 M HCl (VWR) per well. The plate was read using a plate reader (Molecular Devices) at absorbance of 450 nm, and signal greater than 0.25 OD was considered evidence of peptide binding.
# hLRIG1 Peptide 71 = biological target: T3, hLRIG1 Peptide 71; assay: peptide ELISA of Example 2, as told in Example 3
# Experimental: as §1
# hLRIG1 Peptide 70 = biological target: T4, hLRIG1 Peptide 70; assay: peptide ELISA of Example 2, as told in Example 3
# Experimental: as §1
binding result [1],binding result (hLRIG1 Peptide 69),binding result (hLRIG1 Peptide 71),binding result (hLRIG1 Peptide 70),Binder
binds,binds,,,"802.5G6.2B11 (antibody, V domains shown, Mouse hybridoma monoclonal) VH: EVQLQQSGAELVRPGASVKLSCTASGFNIKDDYLHWVKQRPEQGLEWIGWIDPEKGDTECASKFQGKATITVDTSSNTAYLQLSSLTSEDTAVYFCTTGSTVWGQGTTLTVSS VL: not shown"
binds,,binds,binds,"802.5G6.2B8 (antibody, V domains shown, Mouse hybridoma monoclonal) VH: EVHLVESGGGLMKPGGSLKLSCAASGFTFSSYAMSWVRQTPEKRLEWVATISDGGSYTYYPDNVKGRFTISRDNAKNNLYLQMSRLKSEDTAMYYCSRAGSTVVNFGYWGQGTTLTVSS VL: DIVMTQTPLSLPVSLGDQASISCRSSQNIAHSNGNTYLEWYLQKPGQSPQLLIYKVSNRFSGVPDRFSGSGSGTDFTLKISRVEAEDLGVYYCFQGSHVPLTFGAGTKLELK"
